According to paper PMC10904899, “Protein engineering of transaminase facilitating enzyme cascade reaction for the biosynthesis of azasugars” (iScience, 2024):
Numbering of substitutions follows the chain as printed. Numbers in names are those of the source.

B1: MvTA (Mycolicibacterium vanbaalenii PYR-1) (protein)
chain: MGIDTGTSNLVAVEPGAIREDTPAGSVIQYSDYEIDYSSPFAGGVAWIEGEYLPAEDAKISIFDTGFGHSDLTYTVAHVWHGNIFRLGDHLDRLLDGARKLRLDSGYTKDELADITKKCVSLSQLRESFVNLTITRGYGKRKGEKDLSKLTHQVYIYAIPYLWAFPPAEQIFGTTAVVPRHVRRAGRNTVDPTIKNYQWGDLTAASFEAKDRGARTAILMDADNCVAEGPGFNVCIVKDGKLASPSRNALPGITRKTVFEIAGAMGIEAALRDVTSHELYDADEIMAVTTAGGVTPINTLDGVPIGDGEPGPVTVAIRDRFWALMDEPGPLIEAIQY
notes: homodimer; PLP on Lys195
B2: MvTA (Mycolicibacterium vanbaalenii PYR-1; A168E/H152N/H69R/K142P/K145R/L162I/R215G/S105P/S121M) (protein)
chain: B1 chain with H69R, S105P, S121M, K142P, K145R, H152N, L162I, A168E, R215G
notes: homodimer; PLP on Lys195
B3: MvTA (Mycolicibacterium vanbaalenii PYR-1; A168E/H152N/H69K/K142P/K145R/L162I/R215G/S105P/S121M) (protein)
chain: B1 chain with H69K, S105P, S121M, K142P, K145R, H152N, L162I, A168E, R215G
notes: homodimer; PLP on Lys195

These proteins were tested on C[C@@H](N)c1ccccc1 (assay: HPLC of acetophenone, nonlinear regression). Conditions: 20 mM D-fructose, 0.1 mM PLP, pH 6.0, 30°C.
Format: biochemical, Mycolicibacterium austroafricanum
Source text: HPLC of acetophenone, nonlinear regression on MvTA

Row | Protein | Km | kcat | kcat/Km
1 | B1 | 0.71 mM | 0.0127 s⁻¹ | 17.8 M⁻¹ s⁻¹
2 | B2 | 8.20 mM | 0.65 s⁻¹ | 79.2 M⁻¹ s⁻¹
3 | B3 | 3.93 mM | 0.189 s⁻¹ | 48 M⁻¹ s⁻¹
